No end group written: not given here.
Target: GLP-1R on Rinm cells
Test: cell-based or functional assay

HAEGTFTSDVSSYLEGQAAKEFIAWLVKGRG (not fully specified) [GLP-1 peptide]
cAMP activity in Rinm cells (EC50): 0.4 nM

Reference: patent publication US20070135338A1 (published 2007)
